Test results reported in the supplement of paper PMC12636428.

Tested on: Saccharomyces cerevisiae
Assay: transcriptional activation domain activity (GFP:mCherry ratio, weighted mean of sorted bins, harmonized to initial dataset scale) (arbitrary fluorescence ratio units); higher = stronger transcriptional activation
Conditions: beta-estradiol 1 µM; induction time 4 h
Summary of the method: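 The listed activation activity is a read-weighted mean of bin median fluorescence, averaged across barcodes and linearly mapped onto the initial dataset scale. Barcoded tiles, fused to an estradiol-inducible synthetic transcription factor, were integrated at URA3 in yeast diploids bearing a GFP reporter. Cells were held 4 hours at 30 °C in SC with 1 uM beta-estradiol, sorted into 8 GFP:mCherry bins, and sequenced, and tiles with fewer than 50 reads were excluded.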

## GGKKKKAAAAVLETETEGEGEKENKSAEKGKAGSNGGGKKGKGKKGANGVANG
  transcriptional activation domain activity: 23400

## GGKRKGEQGHGAGQRGKGDGQGRGGRGRGRGEGGEEKGRRAERKEERGRRGRS
  transcriptional activation domain activity: 16300

## GGLCAANFVAILITASVNIWTLLGNVYYSPLVNRCVCVARPEWMWTIWIFPLL
  transcriptional activation domain activity: 46700

## GGLFGAKPATTGGLFGSTPAAQPAQTGGLFGGGGTTGGFGASTTGGAFGSTPA
  transcriptional activation domain activity: 48500

## GGLSELKDSLDDSQVQYAYARVEYANDSESTRVKFVLVIWIGESTKVMRKARV
  transcriptional activation domain activity: 46700

## GGLWNLVMWHWMLSFLAGICCFFLQILTYIWLQESSVIRISTSCLAGFWILPL
  transcriptional activation domain activity: 91700

## GGNIHIRSLFIIAMVFLFFGLVLLTIGFFSDFRKSWFVWRLRTCWLWANGTRF
  transcriptional activation domain activity: 57800

## GGPARRMKPGAPDARREEGGKKKRGATNDTGAAKEKAPAKGRKGKKKPAEESE
  transcriptional activation domain activity: 44500

## GGRGGGRGGRGGGGRGGRDRDGGRGGGRGRGGRGGGEGEEVVGTEGKDGGAEA
  transcriptional activation domain activity: 18300

## GGRKRRKEREQQRERPDEEQSRPGSRDDEEGEKEGRGKGTKARKGAGGAAGKG
  transcriptional activation domain activity: 27600

## GGSGASPPPPDNRPPEERYAEQLRQLNDMGFYDFDRNVAALRRSGGSVQGAIE
  transcriptional activation domain activity: 29100

## GGSKRDREDSRKGGKTSSRGGRLTEDGPSSSHTKKPRKGKKGEEAKEGGEKSS
  transcriptional activation domain activity: 25100

## GGTASPPPPPDNRPPEERYAEQLRQLNDMGFFDFDRNVEALRRSGGSVQGAIE
  transcriptional activation domain activity: 28300

## GGTRRSSNQFGKRNTVALHPVINDFVGTVDSDSLVTAYKPFLASDFIGRGYDD
  transcriptional activation domain activity: 28300

## GGVAAREAKRKGRGRGEEEGRGAVCGGRGARGGARGRGGGGGRTGRAGGARAL
  transcriptional activation domain activity: 23500

## GGVNWESTRDREAVVIRILSPIVEADGSVYICIWIHPVGIIIVHLIVELKLVH
  transcriptional activation domain activity: 42300

## GGVSRIRQGERQGAGAGGAEGKSRKGAAAGRGKGGEQGGERGGSREGKGGGAG
  transcriptional activation domain activity: 37500

## GHDGHGKGHGHGKGGHGRYARGEEAELEERGYGHGHGGHGKGGHGRYAREEEA
  transcriptional activation domain activity: 21100

## GHDGPQQQQQRKKPAAAAAAGKGKEKGKGKGKGQVVVVASKPAKKAASAAAAA
  transcriptional activation domain activity: 28700

## GHERERGSGREKRGGERDATGRRERDRESGRESRESRESSRRERGSRDEGRRD
  transcriptional activation domain activity: 39800

## GHFVRVGTTFFTMYAVNIFLSYARYIAAHFRISVIVISRLMLNLRNPVTFEST
  transcriptional activation domain activity: 60400

## GHGKLGYFTGKAVASIYRFILSSLHFASIFILLGKPTSSFGFIYLVIMLQFWC
  transcriptional activation domain activity: 50200

## GHGSSDGGRPPAKRARKAINCEPCRSSKLKCDRNRPCSSCVLRGTAAQCYPGS
  transcriptional activation domain activity: 38800

## GHGTHCSGTVAGKKYGVAKKANVYAVKVLRSNGSGTMSDVVKGVEYAAEQHSE
  transcriptional activation domain activity: < 6570

## GHGTHCSGTVAGKKYGVAKKASVYAVKVLRSNGSGTMSDVVKGVEYAAESHIK
  transcriptional activation domain activity: 7670

## GHKAEESVPRKPSRSKSKAREAEWAPDGGEEPVSRKPSRSKAKPKAAEVEKED
  transcriptional activation domain activity: 23200

## GHKGRHLAEAAGLALGAKKLMKHRSHSRPGRSPSPEGHHRARHLAEAGIAAAG
  transcriptional activation domain activity: 43900

## GHLLVVSISIIIKAMHGCLYCPIFMYVTTYGYYLWIASFIWRAYYLRFQLTLH
  transcriptional activation domain activity: 43600

## GHSGNNAHSHLQKPHGHAGKTRSEVGGRSGEGGEGNGGAGGGELGKGVAAGRL
  transcriptional activation domain activity: 13700

## GHSGVSVDMHVSFLNSCREGEKVIIKSVIDKKGSRLAFVRVEIKRERDDAIII
  transcriptional activation domain activity: 49500

## GHSIPRLNFGDGYNLNNGRAYRGGTWASTLRYRKSNGLWYWIGCVNFWHTWIF
  transcriptional activation domain activity: 75000

## GHSTSTFNTYDEVVSRPFISLDMLHLNRGANANTHPSHNAKLESECDSSSHSD
  transcriptional activation domain activity: 38700

## GHVRSHNDERPFACGWAGCERAFARQHDCRRHEQRHARDLEREREREFACAGC
  transcriptional activation domain activity: 38100

## GHWSYFRNSSMILNFFYKNIIGIGVLFWFQIFCGWSTTYVFAYVYLLFWNVFW
  transcriptional activation domain activity: 51500

## GIESAGLEVITAQQLEQYAKDQKVLSNCMERNGITAVLCVGLRYIACLIMIIY
  transcriptional activation domain activity: 66200

## GIFCSPFFPFFVPLFCPPFPPPSLFPPLCISLPLSMPNSLLFLFTILYEYAGC
  transcriptional activation domain activity: 56200

## GIHETLSFYFVFVCFLYGLRSMALMIGLTGALFLLFMDMLVFGMATAVLIDYG
  transcriptional activation domain activity: 50700

## GIISRLVRHAHEMSYITSPLCELAAMLSINWWVKRPFIYFELFGYIRMVLLQS
  transcriptional activation domain activity: 86400

## GILFATEGLYTMRFSSWYVRGLFISASIMLFFCYVVARVIIVVVMFTSLRGLP
  transcriptional activation domain activity: 49900

## GILPPLLLAIVFGVLPFILRGLAWYECVPRYSLMSISVYRRFYLFLLIHGFLI
  transcriptional activation domain activity: 51900

## GILRYCKIWLAWVQIHFGVHFFVLTIWYRMWNLHRLVVQQKLLSGWSYYLPII
  transcriptional activation domain activity: 36800

## GILVLLLVYSNLVLLIYHPPTSKRPLDHLFIHVPIRLFLILPLSLMFPYSLLY
  transcriptional activation domain activity: 43900

## GIMILCCTLVVLTRLMGHRILPYTYFTSCLLMQIDFILGMIWDMDPFKVRRFC
  transcriptional activation domain activity: 44600

## GIPDELAWMLCLDGLDCIDGETYNLPLLRQFMELFPSLPLTSLLTAYFLYMDI
  transcriptional activation domain activity: 119000

## GIPVKAYPPNGVYPFSGLSCYAMIVSFLHSELDMVYMTFRELYARYFHHLHTI
  transcriptional activation domain activity: 70500

## GISHNQLSNDDVLLNPSDTGFSPTDNGDGDDGEPHSTLRMAWLLTRVLEHAPL
  transcriptional activation domain activity: 46600

## GIVLLLNAWKGQKIGFVSKDLNLVYSCIRIANEAEERHIAAGRYVDFMNLLLH
  transcriptional activation domain activity: 45500

## GIYAFGKMYFIPYLLSNHWVVMLTYLQHSDPTIPVYRRGQWSFVRGALSTIDR
  transcriptional activation domain activity: 41800

## GKADKKETANGKSTDSKTAGGNANSTARKRKTSNASVQDQKAAKATTTAASRK
  transcriptional activation domain activity: 27600

## GKAKASKTAGAGLAKASKAPKVPKAGGKGAKASKGAKAPKASKAAGAAGAKAS
  transcriptional activation domain activity: 28400

## GKDAEAADKPIEGKDAGDVEMNDAPEKEPEAEAAKPKGRGGRPKKVVPAAAAP
  transcriptional activation domain activity: 23900

## GKEKKDGEAAAPAAANHAPAEASAPAQTSSRPEGGERGRGRGRGHKGERGGAG
  transcriptional activation domain activity: 43200

## GKEKNHGRGERNGERTKAKGEGRGEEDSQRRGRRRESKERGRRRGGEPEETKG
  transcriptional activation domain activity: 49600

## GKEVVDIQEAEVEEGGVKREKVRVVFKDGTDAVGDLVVGCDGARSRARECIVG
  transcriptional activation domain activity: 45700

## GKFLTVLLALSVMGSVAATSVAIFSFNNIRSNVYSFYSISLNMQILMPVLVYV
  transcriptional activation domain activity: 41200

## GKGEEEVEEEERLYDRLVIANGHYRVPFVPPLPGLAAWQRAGRATHAAWYRAA
  transcriptional activation domain activity: 59800

## GKGEKDSKDNEKGEGEKKGENRRGRRRGGRGRGGGGDKDKENNKDGGGGRGEK
  transcriptional activation domain activity: 30500

## GKGHYVTFSFVMADIILGMSAPMLRICVCHCVPQRQRKSNIILLQIILLFYER
  transcriptional activation domain activity: 54500

## GKGIGGFNCVAASLGVVQVGMQWSCFAVILLLFLIYFPSASSLGSPATTPTGT
  transcriptional activation domain activity: 36400

## GKGKPRDNAKEEEKEEERKIPQAIVVSGLHHASTAAQLALSSALREGEIEMDG
  transcriptional activation domain activity: 15000

## GKGKRKAVSEEEDKDEEGDEEPVKAKGKGKGKGKRKVVAKKVKRRAPAAADTS
  transcriptional activation domain activity: < 6570

## GKISKDYHHVPSLASISSLQSSQSLDQNFSIPQSPPLSSMSFNFLTGNINETN
  transcriptional activation domain activity: 43600

## GKKDQEALKEGESSSESASASASKSSSSTKSSKGSKSSSAAAAEASDDGKPKK
  transcriptional activation domain activity: 38600

## GKKGPGGRKGPGGRKGPGGRGGRAGGPKGRGGKGGKGMRPGAGAPPPPPPIAA
  transcriptional activation domain activity: 52600

## GKKGSSGAKKGGKKGSSTGAKEEVAKKPSIEKSGEKKSEGGEKKENDEKKNDK
  transcriptional activation domain activity: 37900

## GKKKGKRGKGKGKRGRGKGRGEREGWQGKAAGKEGAGKKGAGEGEQGKGSRGK
  transcriptional activation domain activity: 44300

## GKKKKAKKAEVRKARAKASDRAKAKAKAAGPSRASKKAAAPARAKSGDGGKDK
  transcriptional activation domain activity: 21600

## GKKRKSTGAKSREQPKAKRIAKAKTKTGAFGAGRKGATAGHAKGRAAAAGPKA
  transcriptional activation domain activity: 59000

## GKKRRRSSSSSSSSSGSSSSGSSSSSGSDSESDSSSDSSSSSSNSSRSSGSRS
  transcriptional activation domain activity: 24900

## GKKSSGKKSGSSKKTKKDKKAEKDKTAADEKEKEEVKEKETGAEGEKTPEHSE
  transcriptional activation domain activity: 37700

## GKPAASAFGGGSSAFGAGSGAFGGGGGGGPSAFGAPASKPSAFGTGGAFGGGA
  transcriptional activation domain activity: 51100

## GKPGGGEAKTGERKGEGRGGRGKGGPGGKKDGPPPGEGKGAVVASAASTSATP
  transcriptional activation domain activity: 34700

## GKPRGYAFVEYEREKDMKAAYKEGDGMKITGRRVVVDVERGRTVKGWKPRRLG
  transcriptional activation domain activity: 36700

## GKPRKRLAQACLTCREKKIKCDPGSPKCAQCQKSHRICRGTGSVASSGGPVGV
  transcriptional activation domain activity: 19000

## GKPRKRLAQACLTCREKKIKCEPGYPKCHQCAKSQRVCRGGLNQASIGNASGE
  transcriptional activation domain activity: 36100

## GKPVALRTSTRVKDVSGDGIVTLESGEQISADVVVGADGVHSRTRYAIPGSAG
  transcriptional activation domain activity: 52400

## GKPVIKISSFAPKLTVISSKQRPRRLSIKGSDGKDYQFLLKGHEDLRQDERVM
  transcriptional activation domain activity: 58400

## GKRAGAKGKKEASKKKKSQGSSRKGSGKGKKGNGGKGKNGGGKDKGKKSGKKG
  transcriptional activation domain activity: 21800

## GKRAREESDEENDEEEEAEGEGAEKEGEEEEEEEEVKKPAAKRARTAKGAAAK
  transcriptional activation domain activity: 13500

## GKRARGVGKLRPSVVLYNELHKDGEGVGEVARRDLVGSSKGKGRSGVDTLLVV
  transcriptional activation domain activity: 59800

## GKRGSRGRGRGKGGKKKGKGREGAEEGEGGSRGRGEGGGKTGEGGRESRRRGE
  transcriptional activation domain activity: 37600

## GKRNSGAGGASAKAKARGAGKKPAAAGGKAGKKNVRAAKSKGKAAGARTKPAA
  transcriptional activation domain activity: 43900

## GKRRFLNGFLSCLLPTCGISDPLLRYAACFTVIRCCFRSNVLVPAMMRALLET
  transcriptional activation domain activity: 45100
